Results on 1 molecule are retold here after paper PMC5021340, “The Involvement of Mig1 from Xanthophyllomyces dendrorhous in Catabolic Repression: An Active Mechanism Contributing to the Regulation of Carotenoid Production”.

For this data set, the target named is Mig1 (Xanthophyllomyces dendrorhous, UniProt A0A1C9UL02 1-863). As to the kind of experiment: EMSA; poly(dI-dC); 20 mM HEPES pH 7.9, 50 mM KCl, 1 mM DTT, 0.1 mM EDTA, 5% glycerol (+2.5%), 200 ug/ml BSA, 50 ng/ul poly(dI-dC), 0.05% NP-40, 20 fmol DNA, 10 ug Mig1 in 20 ul, room temperature 20 min. The note with it: protein: recombinant; (pET-TEV), removed by TEV protease; label: 5' biotin; blunt. In general terms: Mobility shift assays separate free from complexed probe on a gel.
Sequence of Mig1 (A0A1C9UL02 entry or part of it): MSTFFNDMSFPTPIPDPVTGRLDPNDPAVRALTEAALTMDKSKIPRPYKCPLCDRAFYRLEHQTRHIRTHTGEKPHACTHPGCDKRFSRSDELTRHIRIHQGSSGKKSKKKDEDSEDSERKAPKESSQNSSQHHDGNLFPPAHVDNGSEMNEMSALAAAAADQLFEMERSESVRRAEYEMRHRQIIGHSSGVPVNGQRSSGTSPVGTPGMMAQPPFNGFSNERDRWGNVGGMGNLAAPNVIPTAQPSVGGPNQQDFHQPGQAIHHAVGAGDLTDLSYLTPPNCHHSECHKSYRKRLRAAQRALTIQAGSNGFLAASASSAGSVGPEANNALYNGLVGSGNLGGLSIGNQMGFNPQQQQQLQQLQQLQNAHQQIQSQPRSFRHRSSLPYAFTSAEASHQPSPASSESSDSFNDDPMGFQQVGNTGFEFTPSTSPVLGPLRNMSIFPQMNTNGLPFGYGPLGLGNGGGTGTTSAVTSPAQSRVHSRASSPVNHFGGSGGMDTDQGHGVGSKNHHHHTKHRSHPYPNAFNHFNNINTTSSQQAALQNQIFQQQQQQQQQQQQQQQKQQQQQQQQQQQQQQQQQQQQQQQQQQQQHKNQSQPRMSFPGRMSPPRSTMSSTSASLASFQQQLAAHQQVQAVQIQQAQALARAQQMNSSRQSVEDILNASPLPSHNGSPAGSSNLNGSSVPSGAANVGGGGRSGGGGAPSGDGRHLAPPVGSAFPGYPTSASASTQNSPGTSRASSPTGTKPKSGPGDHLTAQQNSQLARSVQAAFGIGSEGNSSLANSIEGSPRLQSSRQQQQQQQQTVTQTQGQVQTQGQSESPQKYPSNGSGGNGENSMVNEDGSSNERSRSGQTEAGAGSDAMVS

B1: grg2 box A (-348) 54 bp (dsDNA)
DNA 1: GAGGTATATGCGTTCCGCGAACTGCGGAGATGTGACGTCACATCTCGTCACAGC
DNA 2: GCTGTGACGAGATGTGACGTCACATCTCCGCAGTTCGCGGAACGCATATACCTC
As to B1, the binding result is on record as “binds”.
